The target in experiment [1] is T1, 2ctPA (active form of recombinant tPA) (Homo sapiens, UniProt P00750).
T1 construct: gene PLAT
The experiment is described as follows: tPA hydrolytic activity assay. The format is biochemical. The settings on record: direct inhibition stated, data not shown; conditions not given.

The target in experiment [2] is Neuroserpin (SERPINI1), wild type, uncleaved (human) (UniProt Q99574). Kind of experiment: SEC-MALS; Nat incubated with EMB; peaks eluted at 13.7 and 12.5 ml; SEC-HPLC, 200 μL at 4 mg/mL.
For experiment [3] the target is unchanged. Kind of experiment: native MS; nano-ESI-MS of the SEC peak at 12.5 ml of Nat incubated overnight at 20 °C with EMB; 100 mM ammonium acetate pH 8, 10-20 μM protein, declustering potential 300 V.
Experiment [4] has the same target. Kind of experiment: SEC; Nat (4 mg/ml) with 1.5 mM (saturated) EMB overnight at 4, 20, 37, 45, 55 °C; Superdex200 10/300 GL, 10 mM Tris HCl, 50 mM KCl, pH 8.0; fractions also by SDS-PAGE. On the technique in general: Size exclusion chromatography separates by hydrodynamic size, large species first.

We go through two molecules from article PMC4702122, “Embelin binds to human neuroserpin and impairs its polymerisation” (Scientific Reports, 2016).

Several values for one entry are separate records, joined by “and”; a condition that tells them apart may be missing. Equal entries are not always repeated.

T1 sequence (P00750 36-562): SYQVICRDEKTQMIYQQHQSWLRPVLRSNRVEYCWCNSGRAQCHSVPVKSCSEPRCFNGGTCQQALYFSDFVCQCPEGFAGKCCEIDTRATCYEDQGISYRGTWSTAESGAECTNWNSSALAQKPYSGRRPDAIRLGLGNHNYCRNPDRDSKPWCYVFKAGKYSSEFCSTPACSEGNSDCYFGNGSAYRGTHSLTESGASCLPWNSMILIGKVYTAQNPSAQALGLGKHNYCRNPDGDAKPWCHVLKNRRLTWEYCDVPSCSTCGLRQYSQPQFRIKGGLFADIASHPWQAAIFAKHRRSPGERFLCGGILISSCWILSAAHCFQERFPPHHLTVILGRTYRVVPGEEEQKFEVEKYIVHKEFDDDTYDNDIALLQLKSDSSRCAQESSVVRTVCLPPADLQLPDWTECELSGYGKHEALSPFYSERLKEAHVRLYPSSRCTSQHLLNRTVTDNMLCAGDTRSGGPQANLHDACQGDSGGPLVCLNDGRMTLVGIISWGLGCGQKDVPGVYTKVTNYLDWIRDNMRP

For `CCCCCCCCCCCC1=C(O)C(=O)C=C(O)C1=O` [EMB, embelin], the “tPA hydrolytic activity assay” value in experiment [1] is listed as “Due to direct inhibitory effect of EMB on tPA”.
Broadly, the stoichiometry N is the number of molecules, sites or subunits per partner or assembly. Take “Neuroserpin (SERPINI1), wild type, uncleaved (from UniProt Q99574 17-410) (natural protein)”: the stoichiometry N in experiment [2] was 2; in experiment [3] it was 3 and 4 and 2; in experiment [4] it was 2 to 8.
